Measurements: article PMC8804602 (FEBS Open Bio, 2022)

Target: the molecule itself
Experiment: SEC-MALS; 25 °C, Superdex 200 Increase 10/300 GL, ~2 mg/mL, 100 μL injected, 25 mM Tris-HCl pH 8.0, 150 mM NaCl

B1: periplasmic part of MreC (residues 36-367) from Escherichia coli (domain or fragment, E. coli, UniProt P16926 36-367, looked up)
chain: SQIRTYMDTAVSPFYFVSNAPRELLDGVSQTLASRDQLELENRALRQELLLKNSELLMLGQYKQENARLRELLGSPLRQDEQKMVTQVISTVNDPYSDQVVIDKGSVNGVYEGQPVISDKGVVGQVVAVAKLTSRVLLICDATHALPIQVLRNDIRVIAAGNGCTDDLQLEHLPANTDIRVGDVLVTSGLGGRFPEGYPVAVVSSVKLDTQRAYTVIQARPTAGLQRLRYLLLLWGADRNGANPMTPEEVHRVANERLMQMMPQVLPSPDAMGPKLPEPATGIAQPTPQQPATGNAATAPAAPTQPAANRSPQRATPPQSGAQPPARAPGGQ
notes: Cell shape-determining protein MreC, E. coli BL21(DE3) strain, residues 36-367, lacks the N-terminal transmembrane region; holds the coiled coil, two six-stranded beta-barrels and the pro-rich region; the cDNA came from strain BL21(DE3); pET21b usually adds a C-terminal His6 (surmised); About 37 kDa per chain as printed; also called truncated MreC; major periplasmic domain of MreC; source: E. …
- stoichiometry N: 2
